Patent US20220251194A1 (Merck Sharp & Dohme, published 2022)

Columns and labels:
[1] = target: T1, Human PD1 (50AFR), [VEGF leader]-Sino-Bio-PD-1_H-[His9G] (human, UniProt Q15116 25-167); assay: SPR sequential antigen injections on captured TsAb; this antigen injected 2nd
T1 construct: Expressed with a VEGF leader; also called PD-1-His (50AFR)
Method: (§1) Sample pre-mixes were injected to cover all six sequential combinations of the three antigens. Injection of pre-mixes in appropriate order (e.g., pre-mix 1->4->7, premix 2->6->7, premix 3->5->7) helped to maintain antigen activities from first and second injections and near saturation of the occupied sites in case of notable dissociation. On a Biacore T200, the first two injections were made using the dual inject mode and the third was made using normal injection mode (the difference is extra time between second and third injections). It is possible that antigens themselves could self-associate or interact with one another in the pre-mixes but for simplicity of interpretation, we assumed that to be unlikely or insignificant.
(§2) Each subsequent upward shift in the signal upon premix injection indicates binding of an antigen to an unoccupied site. Typical % BC for a fully occupied site can range from ˜70% to ˜120% due to matrix effects, MW variations (e.g., glycosylation), fast dissociation, nonspecific binding, reagent quality (e.g., aggregation), etc. The % BC indicated in the figures show good overall binding capacity for the three antigens with somewhat higher % BC for the first binder.

[2] = target: T2, TIGIT-His (87AGX), [SLAM Leader]-TIGIT_H-[His9G] (human, UniProt Q495A1 22-141); assay: as above
T2 construct: Expressed with a SLAM leader
T2 sequence (looked up): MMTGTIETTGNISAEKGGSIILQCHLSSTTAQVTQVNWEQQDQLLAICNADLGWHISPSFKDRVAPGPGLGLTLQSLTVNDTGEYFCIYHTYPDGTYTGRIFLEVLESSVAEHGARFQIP
Method: as §1, §2

human TIGIT (94AGV) = target: T3, human TIGIT (94AGV) (human, UniProt Q495A1 22-141, limits assumed); assay: SPR (Biacore T200 or 4000), antibody captured via anti-human Fc, antigen as analyte
T3 construct: Lot 94AGV is not described further
T3 sequence (looked up): T2 sequence (looked up)
Method: (§3) Binding affinities were measured using a Biacore T200 or Biacore 4000 biosensor (GE Healthcare, Chicago, Ill.). The following running buffer, 10 mM HEPES, 150 mM NaCl, 0.05% v/v Surfactant P20, 3 mM EDTA (GE Healthcare, BR100669, Chicago, Ill.), was used for immobilization, sample dilution and data collection. All experiments were performed at 25° C. Antigen binding to antibodies captured via an anti-human Fc antibody was measured using a Series S Sensor Chip CM5 (GE Healthcare, 29149603, Chicago, Ill.). An anti-human Fc antibody was immobilized on all surfaces of the chip according to the instructions in the Human Antibody Capture Kit (GE Healthcare, BR100839, Chicago, Ill.) and the Amine Coupling Kit (GE Healthcare, BR100633, Chicago, Ill.). […] After the antigen injections the dissociation of the interaction was monitored for 15 minutes. Between binding cycles the antibody and antigen were removed from the chip with a 30 second injection of 3 M MgCl₂.
(§4) The data were processed and fit using Biacore T200 Evaluation Software version 2.0 or Biacore 4000 Evaluation Software version 1.1 (GE Healthcare, Chicago, Ill.). The data were “double referenced” by subtracting the response from a negative control flowcell and subtracting the response from a buffer injection or the average response from two buffer injections. The data were then fit with the ‘1:1 Binding’ model to determine the association rate constant, kₐ (M⁻¹s⁻¹, where “M” equals molar and “s” equals seconds) and the dissociation rate constant, kd (s⁻¹). These rate constants were used to calculate the equilibrium dissociation constant, KD (M)=[…].

human LAG-3 (60AXE) = target: T4, human LAG-3 (60AXE) (human, UniProt P18627 23-450, limits assumed); assay: as above
T4 construct: Lot 60AXE is not described further
T4 sequence (looked up): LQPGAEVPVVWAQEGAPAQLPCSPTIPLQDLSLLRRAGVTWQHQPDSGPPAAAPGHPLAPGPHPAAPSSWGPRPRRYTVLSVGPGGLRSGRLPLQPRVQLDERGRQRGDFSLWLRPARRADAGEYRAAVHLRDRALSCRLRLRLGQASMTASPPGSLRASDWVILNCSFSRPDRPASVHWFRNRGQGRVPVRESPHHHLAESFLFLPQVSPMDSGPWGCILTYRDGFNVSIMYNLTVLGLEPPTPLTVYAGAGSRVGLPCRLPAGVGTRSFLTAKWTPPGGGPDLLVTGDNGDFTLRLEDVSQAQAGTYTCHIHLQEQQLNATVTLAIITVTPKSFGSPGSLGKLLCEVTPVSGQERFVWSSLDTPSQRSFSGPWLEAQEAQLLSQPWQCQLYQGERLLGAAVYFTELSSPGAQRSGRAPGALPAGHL
Method: as §3, §4

[3] = target: T1, Human PD1 (50AFR), [VEGF …; assay: as above
Method: as §3, §4

[4] = target: T5, LAG3-His (66AKO), [VEGF leader]-LAG3_H-[His9G] (human, UniProt P18627 23-450); assay: SPR sequential antigen injections on captured TsAb; this antigen injected 1st
T5 construct: Expressed with a VEGF leader
T5 sequence (looked up): T4 sequence (looked up)
Method: as §1, §2

T1 sequence (Q15116 25-167): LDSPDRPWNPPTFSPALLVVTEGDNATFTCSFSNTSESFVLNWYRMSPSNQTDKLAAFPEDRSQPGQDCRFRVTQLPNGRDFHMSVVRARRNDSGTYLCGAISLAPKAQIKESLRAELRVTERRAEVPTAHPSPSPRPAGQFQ

B1: Anti-PD-1/LAG-3/TIGIT trispecific antibody (TsAb) (Lot 83BCN or 51AVW) (other)
heavy 1: EVQLVQSGAEVKKPGASVKVSCKASGYTFTSYYLYWVRQAPGQGLEWIGGVNPSNAGTNFNEKFKSRVTLTVDTSISTAYMELSRLRSDDTAVYYCTRRLSHYDGGFDYWGQGTTVTVSSASTKGPSVFPLAPSSKSTSGGTAALGCEVTDYFPEPVTVSWNSGALTSGVHTFPAVLESSGLYSLLSVVTVPSSSLGTQTYICNVNHKPSNTKVDKKVEPKSCDKTHTCPPCPAPEAAGGPSVFLFPPKPKDTLMISRTPEVTCVVVSVSHEDPEVKFNWYVDGVEVHNAKTKPREEQYNSTYRVVSVLTVLHQDWLNGKEYKCKVSNKALPAPIEKTISKAKGQPREPQVYVYPPSRDELTKNQVSLTCLVKGFYPSDIAVEWESNGQPENNYKTTPPVLDSDGSFALVSKLTVDKSRWQQGNVFSCSVMHEALHNHYTQKSLSLSPGGGGSGGGSGGGSGGGSDIQMTQSPSSLSASVGDRVTITCRASEHIYSYLSWYQQKPGKVPKLLIYNAKTLAEGVPSRFSGSGSGTDFTLTISSLQPEDVATYYCQHHFGSPLTFGQGTRLEIKGGSSRSSSSGGGGSGGGGSGSEVQLVQSGAEVKKPGSSVKVSCKASGYTFSSYVMHWVRQAPGQGLEWIGYIDPYNDGAKYAQKFQGRVTLTSDKSTSTAYMELSSLRSEDTAVYYCARGGPYGWYFDVWGQGTTVTVSS
light 1: DIVMTQTPLSLSVTPGQPASISCRASKSVSTSGFSYLHWYLQKPGQPPQLLIFLSKYRSSGVPDRFSGSGSGTDFTLKISRVEAEDVGVYYCSQAYHLPLTFGQGTKLEIKRTVAAPSVFIFPPSDERLKSGTASVVCLLNNFYPREAKVQWKVDNALQSGNSQESVTEQDSKDSTYSLSSRLTLSKADYEKHKVYACEVTHQGLSSPVTKSFNRGEC
heavy 2: QMQLVQSGPEVKKPGTSVKVSCKASGYTFTDYNVDWVRQARGQRLEWIGDINPNDGGTIYAQKFQERVTITVDKSTSTAYMELSSLRSEDTAVYYCARNYRWFGAMDHWGQGTTVTVSSASTKGPSVFPLAPSSKSTSGGTAALGCLVKDYFPEPVTVSWNSGALTSGVHTFPAVLQSSGLYKLSSVVTVPSSSLGTQTYICNVNHKPSNTKVDKKVEPKSCDKTHTCPPCPAPEAAGGPSVFLFPPKPKDTLMISRTPEVTCVVVSVSHEDPEVKFNWYVDGVEVHNAKTKPREEQYNSTYRVVSVLTVLHQDWLNGKEYKCKVSNKALPAPIEKTISKAKGQPREPQVYVLPPSRDELTKNQVSLLCLVKGFYPSDIAVEWESNGQPENNYLTWPPVLDSDGSFFLYSKLTVDKSRWQQGNVFSCSVMHEALHNHYTQKSLSLSPGGGGSGGGSGGGSGGGSDIQMTQSPSSLSASVGDRVTITCRASEHIYSYLSWYQQKPGKVPKLLIYNAKTLAEGVPSRFSGSGSGTDFTLTISSLQPEDVATYYCQHHFGSPLTFGQGTRLEIKGGSSRSSSSGGGGSGGGGSGSEVQLVQSGAEVKKPGSSVKVSCKASGYTFSSYVMHWVRQAPGQGLEWIGYIDPYNDGAKYAQKFQGRVTLTSDKSTSTAYMELSSLRSEDTAVYYCARGGPYGWYFDVWGQGTTVTVSS
light 2: DIVMTQTPLSLSVTPGQPASISCKASQSLDYEGDSDMNWYLQKPGQPPQLLIYGASNLESGVPDRFSGSGSGTDFTLKISRVEAEDVGVYYCQQSTEDPRTFGGGTKVEIKRTVAAPSVFIFPPSDEELKSGTATVVCLLNNFYPREAKVQWKVDNALQSGNSQESVTEQDSKDSTYSLSSYLELSKADYEKHKVYACEVTHQGLSSPVTKSFNRGEC
notes: Trispecific heterodimeric IgG1 / kappa; It has one site for PD1, one for LAG3 and two for TIGIT; also called Hz x Hu [PD-1]; [TIGIT]; [LAG3]; TsAb; Anti-human PD1/TIGIT/LAG3 TsAb
- % BC (estimated % binding capacity) [1]: 74%
- % BC (estimated % binding capacity) [2]: 90%
- Kd (human TIGIT (94AGV)): 0.64 nM
- Kd (human LAG-3 (60AXE)): 0.0015 nM
- Kd [3]: 0.15 nM
- % BC (estimated % binding capacity) [4]: 102%
